The values that follow come from patent publication US20210032315A1 (VIVORYON THERAPEUTICS N V, published 2021).

Where two headings read alike, the source gives them in different places.

For assay [1], the target named is T1, Fibrils of Aβ (1-42) peptides (human).
T1 construct: Fibrillar aggregate of Aβ 1-42, made at pH 8.7 and 37 °C and captured on the sensor chip (about 100 RU); also called Aβ (1-42) fibrils
In words: SPR, fibrils captured on the chip, antibody as analyte, single cycle kinetics. As to the method:
(§1) The obtained sensorgrams were evaluated using five consecutive concentrations (starting with the first injection showing binding) and the Single Cycle Kinetics model with a global fit of Rmax and baseline drift and local fits of the bulk effect of every injection.

Assay [2] deals with T2, Oligomers of Aβ (1-42) peptides (human).
T2 construct: Oligomeric Aβ 1-42, made by the ACUMEN protocol in Ham's F12 at 4 °C and captured on the sensor chip (about 300 RU); also called Aβ (1-42) oligomers
The assay can be described thus: SPR, oligomers captured on the chip, antibody as analyte, single cycle kinetics. As to the method: Oligomers of Aβ (1-42) peptides were generated according to the ACUMEN protocol in Ham's F12 medium overnight at 4° C. and separated from aggregated Aβ by centrifugation. Afterwards the oligomers were aspirated in 20 μl, diluted in 60 μl running buffer and loaded onto a sensor chip by use of capture antibodies with a flow rate of 1 μl/min. Then, the system was washed overnight with 100 μl/min getting a stable baseline.
as §1
In general terms: Surface plasmon resonance follows binding to a sensor surface in real time, without labels.

The next assay deals with T3, Aβ (1-18) (human).
T3 peptide: DAEFRHDSGYEVHHQKLV
In words: SPR, antibody captured by anti-human antibody, peptide as analyte.

In assay [3] the target is T4, Aβ (4-18) (human).
T4 peptide: FRHDSGYEVHHQKLV
The assay can be described thus: SPR, antibody captured by anti-human antibody, peptide as analyte, steady-state model.

For assay [4], the target named is T4, Aβ (4-18). The assay is described as above.
Another assay deals with T5, full length human CD16A (human, UniProt P08637 17-254).
T5 construct: whole, on cells; also called Fc gamma receptor
In words: FACS on CHO cells stably expressing the receptor, 7 concentrations. The protocol: (§2) The binding was measured in a FACS based bioassay to Chinese Hamster Ovary (CHO) cells stably expressing full length human CD16A, CD32A, CD32B, or CD64. Both antibodies were incubated with each cell line at 7 different concentrations for one hour followed by washing. Receptor-bound H6 or H67 was detected with fluorochrome conjugated-anti-Fab′. Binding capacity was measured by FACS and the Kd and Bmax were calculated by non-linear regression.

The next assay addresses T6, full length human CD64 (human, UniProt P12314 16-374).
T6 construct: whole, on cells; also called Fc gamma receptor
Described as above. As to the method: as §2

Another assay addresses T7, full length human CD32A (human, UniProt P12318 34-317).
T7 construct: whole, on cells; also called Fc gamma receptor
T7 sequence (looked up): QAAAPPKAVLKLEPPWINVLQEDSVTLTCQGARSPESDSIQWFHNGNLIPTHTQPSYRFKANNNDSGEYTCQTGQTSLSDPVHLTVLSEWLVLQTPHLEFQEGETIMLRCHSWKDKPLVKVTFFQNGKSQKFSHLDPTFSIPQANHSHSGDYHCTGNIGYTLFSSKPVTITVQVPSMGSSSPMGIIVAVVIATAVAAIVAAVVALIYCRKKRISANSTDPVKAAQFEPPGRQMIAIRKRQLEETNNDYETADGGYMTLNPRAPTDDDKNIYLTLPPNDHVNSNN
The assay is described as above. As to the method:
as §2

The target in another assay is T8, full length human CD32B (human, UniProt P31994 43-310).
T8 construct: whole, on cells; also called Fc gamma receptor
T8 sequence (looked up): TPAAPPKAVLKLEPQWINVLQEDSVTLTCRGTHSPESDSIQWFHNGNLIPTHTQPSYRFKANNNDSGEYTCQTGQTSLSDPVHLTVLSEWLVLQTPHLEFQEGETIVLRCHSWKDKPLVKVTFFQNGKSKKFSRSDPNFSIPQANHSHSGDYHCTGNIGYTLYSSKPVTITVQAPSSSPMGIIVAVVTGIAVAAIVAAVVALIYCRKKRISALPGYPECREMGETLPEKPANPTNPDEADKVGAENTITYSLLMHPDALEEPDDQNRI
The description is as above. As to the method:
as §2

T1 sequence (peptide, as listed by the source): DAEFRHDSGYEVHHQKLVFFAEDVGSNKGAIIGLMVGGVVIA
T2 sequence (peptide, as listed by the source): as above
T6 sequence (P12314 16-374): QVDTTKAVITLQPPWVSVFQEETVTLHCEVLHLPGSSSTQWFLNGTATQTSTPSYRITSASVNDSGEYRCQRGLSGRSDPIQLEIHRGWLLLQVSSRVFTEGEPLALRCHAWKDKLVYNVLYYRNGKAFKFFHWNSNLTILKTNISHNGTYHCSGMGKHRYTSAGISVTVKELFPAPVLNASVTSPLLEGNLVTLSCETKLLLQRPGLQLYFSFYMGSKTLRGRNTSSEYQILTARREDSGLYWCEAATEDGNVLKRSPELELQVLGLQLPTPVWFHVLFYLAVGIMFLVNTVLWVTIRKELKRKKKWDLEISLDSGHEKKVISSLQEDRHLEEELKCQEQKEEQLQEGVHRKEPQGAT
T5 sequence (P08637 17-254): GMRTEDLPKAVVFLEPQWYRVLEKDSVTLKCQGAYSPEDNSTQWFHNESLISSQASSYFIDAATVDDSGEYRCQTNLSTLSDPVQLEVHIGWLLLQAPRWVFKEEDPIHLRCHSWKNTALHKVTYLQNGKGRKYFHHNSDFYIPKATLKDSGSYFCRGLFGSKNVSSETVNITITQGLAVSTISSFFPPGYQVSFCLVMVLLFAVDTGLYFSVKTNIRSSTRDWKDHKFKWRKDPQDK

B1: parental antibody clone #6 disclosed in WO 2017/009459 (antibody, V domains shown)
VH: QVQLVQSGAEVKKSGASVKVSCKASGYSFTGHTMNWVRQAPGQGLEWMGLINPSNGVTRYNQKFQGRVTITRDTSTTTVHMELTSLTSEDTATYYCTREAKREWDETYWGQGTLVTVSS
VL: DVVMTQSPLSLPVTLGQPASISCKSSQSLLYSDGKTYLNWFQQRPGQSPRRLTYLVSKLDSGVPDRFSGSGSGTDFTLKISRVEAEDVGVYYCVQGTHFPFTFGGGTKVEIK
notes: also called parental clone #6 variant
For orientation: Kd means the free concentration of one partner at which half of the binding sites on the other are occupied at equilibrium, for simple one-to-one binding. A low value points to higher affinity. For orientation: koff means the rate constant with which the complex falls apart. Usually kon stands for a measure of how fast the partners come together. Consider B1, for which, in [1], the Kd was determined as 0.0659 nM, the koff was 6.53e-05 s⁻¹ and the kon is 990000 M⁻¹ s⁻¹. In assay [2], this molecule had a Kd of 7.61 nM, a koff of 0.000142 s⁻¹ and a kon of 18600 M⁻¹ s⁻¹.

B2: humanized and de-immunized antibody clone #6 of the present invention (antibody, V domains shown)
VH: QVQLVQSGAEVVKPGASVKVSCKASGYSFTGHTMNWVRQAPGQGLEWMGLINPSDGVTRYNQKFQGRVTITRDTSTTTVHMELTSLTSEDTATYYCTREAKREWDETYWGQGTLVTVSS
VL: DVVMTQSPLSLPVTLGQPASISCKSSQSLLYSDGKTYLNWFQQRPGQSPRRLTYLVSKLDSGVPDRFSGSGSGTDFTLKISRVEAEDVGVYYCVQGTHFPFTFGGGTKVEIK
notes: It was captured by a polyclonal anti-human antibody, so it has human constant regions
For the molecule B2, the Kd with Aβ (1-18) is above 10000 nM; in the assay with Aβ (4-18) [3], 28300 nM; in the assay with Aβ (4-18) [4], above 10000 nM; in assay [1], 1.67 nM; in assay [2], 269 nM.

B3: antibody comprising the wild-type heavy chain of SEQ ID NO: 19 (antibody, human IgG1, kappa)
heavy: not shown
light: DVVMTQSPLSLPVTLGQPASISCKSSQSLLYSDGKTYLNWFQQRPGQSPRRLTYLVSKLDSGVPDRFSGSGSGTDFTLKISRVEAEDVGVYYCVQGTHFPFTFGGGTKVEIKRTVAAPSVFIFPPSDEQLKSGTASVVCLLNNFYPREAKVQWKVDNALQSGNSQESVTEQDSKDSTYSLSSTLTLSKADYEKHKVYACEVTHQGLSSPVTKSFNRGEC
notes: also called antibody according to A)
With B3, the binding result in the assay with full length human CD16A, with full length human CD64, in the assay with full length human CD32A and with full length human CD32B was “binds” in each case.

B4: K324A mutant variant (comprising the heavy chain of SEQ ID NO: 18) (antibody, human IgG1, kappa)
heavy: not shown
light: DVVMTQSPLSLPVTLGQPASISCKSSQSLLYSDGKTYLNWFQQRPGQSPRRLTYLVSKLDSGVPDRFSGSGSGTDFTLKISRVEAEDVGVYYCVQGTHFPFTFGGGTKVEIKRTVAAPSVFIFPPSDEQLKSGTASVVCLLNNFYPREAKVQWKVDNALQSGNSQESVTEQDSKDSTYSLSSTLTLSKADYEKHKVYACEVTHQGLSSPVTKSFNRGEC
notes: also called antibody according to B)
B4: the binding result in the assay with full length human CD16A, in the assay with full length human CD64, with full length human CD32A and with full length human CD32B was “binds” in each case.
